Results taken from patent publication US20050256058.

What was measured:
[1] = test system: T1, Cbz-Ala-Ala-AAsn-CH═CH-CON(CH3)Bzl
T1 sequence: AAN

[2] = test system: T2, Cbz-Ala-Ala-AAsn-CH═CH-CO-indoline
T2 sequence: AAN

[3] = test system: T3, Cbz-Ala-Ala-AAsn-CH═CH-CON(Bzl)2
T3 sequence: AAN

[4] = test system: T4, Cbz-Ala-Ala-AAsn-CH═CH-CONHCH2CH2Ph
T4 sequence: AAN

[5] = test system: T5, PhPr-Leu-ALys-CH═CH-COOEt
T5 sequence: LK

[6] = test system: T6, Cbz-Ala-Ala-AAsn-CH═CH-COOEt
T6 sequence: AAN

[7] = test system: T7, PhPr-Leu-AOrn-CH═CH-COOEt
T7 sequence: LX

Substance	kobs/[I] [1]	kobs/[I] [2]	kobs/[I] [3]	kobs/[I] [4]	kobs/[I] [5]	kobs/[I] [6]	kobs/[I] [7]
Cathepsin B	NI	NI	NI	NI	9 M⁻¹ s⁻¹	1 M⁻¹ s⁻¹	3 M⁻¹ s⁻¹
Gingipain K	1 M⁻¹ s⁻¹	1 M⁻¹ s⁻¹	2 M⁻¹ s⁻¹	NI		6 M⁻¹ s⁻¹	
Trypsin					17 M⁻¹ s⁻¹		NI
